According to paper PMC11172124 (Cells, 2024):
One block for each binder: values may come before it.

Key:
[1] = target: T1, Lamin B1 (human (endogenous in MCF10A and MDA-MB-231)), P20700; assay: non-reducing SDS-PAGE with Western blot; MCF10A cell lysate with 20 mM N-ethylmaleimide, without β-mercaptoethanol, 4 min at 50 °C, 4–12% gradient gel; shows only disulphide-linked species; conditions: remark: other sources report otherwise
T1 chain: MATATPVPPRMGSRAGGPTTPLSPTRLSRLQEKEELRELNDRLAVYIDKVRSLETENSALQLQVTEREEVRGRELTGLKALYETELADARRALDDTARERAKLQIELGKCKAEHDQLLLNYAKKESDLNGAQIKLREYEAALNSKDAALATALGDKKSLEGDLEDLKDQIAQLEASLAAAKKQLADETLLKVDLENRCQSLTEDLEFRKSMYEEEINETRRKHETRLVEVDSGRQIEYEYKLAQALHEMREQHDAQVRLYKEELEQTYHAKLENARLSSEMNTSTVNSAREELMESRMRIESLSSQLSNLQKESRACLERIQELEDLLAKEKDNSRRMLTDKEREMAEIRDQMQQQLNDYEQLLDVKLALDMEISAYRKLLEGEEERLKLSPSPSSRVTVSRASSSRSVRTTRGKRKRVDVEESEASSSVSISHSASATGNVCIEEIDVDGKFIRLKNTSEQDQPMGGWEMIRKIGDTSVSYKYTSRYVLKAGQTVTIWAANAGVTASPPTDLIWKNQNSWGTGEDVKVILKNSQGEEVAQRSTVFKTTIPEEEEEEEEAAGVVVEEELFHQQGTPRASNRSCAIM

[2] = target: the molecule itself; assay: as above

stoichiometry N [1]: 2
B1: Lamin B1, P20700 1-586 (natural protein)
chain: T1 chain

B2: SUN2 (natural protein, UniProt Q9UH99-2 1-738, looked up)
chain: MSRRSQRLTRYSQGDDDGSSSSGGSSVAGSQSTLFKDSPLRTLKRKSSNMKRLSPAPQLGPSSDAHTSYYSESLVHESWFPPRSSLEELHGDANWGEDLRVRRRRGTGGSESSRASGLVGRKATEDFLGSSSGYSSEDDYVEDSEGRGSKVTETEPVSSFPAGYSDVDQQSSSSRLRSAVSRAGSLLWMVATSPGRLFRLLYWWAGTTWYRLTTAASLLDVFVLTRRFSSLKTFLWFLLPLLLLTCLTYGAWYFYPYGLQTFHPALVSWWAAKDSRRPDEGWEARDSSPHFQAEQRVMSRVHSLERRLEALAAEFSSNWQKEAMRLERLELRQGAPGQGGGGGLSHEDTLALLEGLVSRREAALKEDFRRETAARIQEELSALRAEHQQDSEDLFKKIVRASQESEARIQQLKSEWQSMTQESFQESSVKELRRLEDQLAGLQQELAALALKQSSVAEEVGLLPQQIQAVRDDVESQFPAWISQFLARGGGGRVGLLQREEMQAQLRELESKILTHVAEMQGKSAREAAASLSLTLQKEGVIGVTEEQVHHIVKQALQRYSEDRIGLADYALESGGASVISTRCSETYETKTALLSLFGIPLWYHSQSPRVILQPDVHPGNCWAFQGPQGFAVVRLSARIRPTAVTLEHVPKALSPNSTISSAPKDFAIFGFDEDLQQEGTLLGKFTYDQDGEPIQTFHFQAPTMATYQVVELRILTNWGHPEYTCIYRFRVHGEPAH
notes: SUN2, human, endogenous in MCF10A and MDA-MB-231 cells; detected as a ~80 kDa monomer; Free cysteines were alkylated with 20 mM N-ethylmaleimide when the lysate was made; Which isoform the cells express was not determined; also called SUN-domain protein SUN2
ratio of the >140 kDa SUN2 signal to the SUN2 monomer signal [2]: ~1 | stoichiometry N [2]: 2
